The values that follow come from paper PMC6594588.

For experiment [1], the target named is T1, Flp(Y343F) (S. cerevisiae (2-micron plasmid)) (UniProt P03870).
T1 sequence: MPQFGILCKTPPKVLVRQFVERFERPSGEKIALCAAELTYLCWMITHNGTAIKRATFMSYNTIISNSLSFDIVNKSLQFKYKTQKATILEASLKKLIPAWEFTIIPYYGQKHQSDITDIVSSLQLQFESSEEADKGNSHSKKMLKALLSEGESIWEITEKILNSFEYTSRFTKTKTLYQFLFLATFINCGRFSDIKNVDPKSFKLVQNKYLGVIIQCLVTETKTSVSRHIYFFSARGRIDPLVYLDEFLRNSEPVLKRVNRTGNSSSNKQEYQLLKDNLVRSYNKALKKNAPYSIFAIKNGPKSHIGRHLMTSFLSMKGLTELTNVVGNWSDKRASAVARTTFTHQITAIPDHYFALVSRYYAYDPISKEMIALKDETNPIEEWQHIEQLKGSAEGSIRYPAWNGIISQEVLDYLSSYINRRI

Experiment [2] deals with Flp(Y343F)-SUMO (S. cerevisiae (2-micron plasmid) | not stated) (UniProt P03870).

With “Flp(R191A)-SUMO (from UniProt P03870 1-423; Q12306 1-96) (enzyme)”, in experiment [1], the strand cleavage complementation on separately pre-bound half-sites; cleavage yield against that of Flp(R191A) with Flp(Y343F) was 1.5 fold and the strand cleavage complementation on separately pre-bound half-sites; cleavage yield against that of Flp(R191A)-SUMO with Flp(Y343F)-SUMO is 1.5 fold. The substance also displayed a strand cleavage complementation on separately pre-bound half-sites; cleavage yield against that of Flp(R191A) with Flp(Y343F)-SUMO in experiment [2] of 1.6 fold.
